Measurements as given in patent publication US6897017.

Experiments:
Assay in all cases: cell-based or functional assay
[1] = target: GCN4-DHFR[2:I114A] (murine)
[2] = target: WinZip-B1-DHFR[2:I114A] (murine) (UniProt P00375)
[3] = target: WinZip-B2 fused to DHFR[2:I114A] (clone of LibB-DHFR[2:I114A]) (murine) (UniProt P00375)

GCN4 zippers among sequences from passage 9 of model competition selection (of 24 sequences) [1] | Frequency of dominant pair at P12, competition selection (I114A) [2] [%] | Selection factor, competition selection (I114A) [2] | frequency of the pair among colonies sequenced at P10 [2] [%] | Frequency of dominant pair at P12, shuffling WinZip-A1 + LibB-DHFR[2:I114A] [3] [%] | Selection factor, shuffling WinZip-A1 + LibB-DHFR[2:I114A] [3] | frequency of the pair among clones sequenced at P10 [3] | Substance
0 | – | – | – | – | – | – | GCN4-DHFR[1] (from UniProt P03069 253-274; P00375 1-107)
– | 82 | 3.2e+06 | 33 | 67 | 87000 | 3 of 5 clones | WinZip-A1-DHFR[1] (from UniProt P00375 1-107) (designed binder)
